From article PMC3813506 (2013)
Values belong to the molecule of their own block, whether it stands above or below them.

Key:
Nupr1 [1] = molecular target: T1, Nupr1 (Homo sapiens, UniProt O60356); assay: ITC; 40 µM MSL1 injected into 4 µM Nupr1 in the cell; 25°C, 10 mM acetate buffer pH 4.5; single-site binding model; heat of dilution of MSL1 used as reference
T1 chain: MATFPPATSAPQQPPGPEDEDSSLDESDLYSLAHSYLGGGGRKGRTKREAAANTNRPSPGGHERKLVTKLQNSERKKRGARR

[2] = molecular target: Nupr1-Flag (pcDNA3-Nupr1-Flag) (UniProt O60356); assay: proximity ligation; MiaPaCa-2 cells transfected with Nupr1-Flag and MSL1-V5, treated with cisplatin (5 µM or 10 µM) for 24 h; DuoLink kit; also combined with γ-H2AX staining
TRX-MSL1 (Homo sapiens) = tested on: T2, TRX-MSL1 (Homo sapiens); assay: ITC; details: apparent; dH 29 kcal/mol; DNA MW assumed (10^4 kDa); chemically damaged with etoposide; ITC: 10 mM acetate pH 4.5, 25 C, 0.03 mg/ml damaged DNA; CD/fluorescence: 50 mM acetate pH 4.5, 25 C, 20 uM protein; agarose gel: 2%, 1x TAE; NMR 25 C
T2 sequence: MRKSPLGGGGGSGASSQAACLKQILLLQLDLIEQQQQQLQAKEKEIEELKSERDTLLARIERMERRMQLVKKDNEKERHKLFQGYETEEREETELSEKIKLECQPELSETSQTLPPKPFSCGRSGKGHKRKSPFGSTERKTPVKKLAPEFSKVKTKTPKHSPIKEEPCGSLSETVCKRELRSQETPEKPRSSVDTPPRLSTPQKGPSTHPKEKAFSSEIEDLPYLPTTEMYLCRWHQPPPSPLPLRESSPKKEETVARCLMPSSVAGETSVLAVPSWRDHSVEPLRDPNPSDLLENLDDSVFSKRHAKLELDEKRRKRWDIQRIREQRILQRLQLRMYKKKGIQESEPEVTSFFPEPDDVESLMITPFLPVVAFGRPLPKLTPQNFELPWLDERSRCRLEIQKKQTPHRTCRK

[3] = tested on: TRX-MSL1;Nupr1 (Homo sapiens;); assay: ITC; details: MSL1 titrated into preformed Nupr1 + damaged-DNA complex; dH 28 kcal/mol; chemically damaged with etoposide; ITC: 10 mM acetate pH 4.5, 25 C, 0.03 mg/ml damaged DNA; CD/fluorescence: 50 mM acetate pH 4.5, 25 C, 20 uM protein; agarose gel: 2%, 1x TAE; NMR 25 C
Nupr1 [4] = assay: ITC; details: apparent; dH -23 kcal/mol; DNA MW assumed (10^4 kDa); chemically damaged with etoposide; ITC: 10 mM acetate pH 4.5, 25 C, 0.03 mg/ml damaged DNA; CD/fluorescence: 50 mM acetate pH 4.5, 25 C, 20 uM protein; agarose gel: 2%, 1x TAE; NMR 25 C
Nupr1 [5] = molecular target: T1, Nupr1; assay: ITC

Molecule: TRX-tagged MSL1 (His-tagged TRX-MSL1 fusion protein, human MSL1, 413-residue-long differentially spliced isoform) (natural protein)
Kd (Nupr1 [1]): 2800 nM
dH (Nupr1 [1]): 39 kcal/mol

Molecule: etoposide-damaged DNA
Kd (TRX-MSL1 (Homo sapiens)): 1200 nM
Kd [3]: 800 nM
Kd (Nupr1 [4]): 400 nM

Further lines, results first:

PLA dots (PLA combined with γ-H2AX staining, cisplatin) [2]: 53 PLA dots
PLA dots per nucleus (5 µM cisplatin) (dots PLA per nucleus) [2]: 32
PLA dots per nucleus (10 µM cisplatin) (dots PLA per nucleus) [2]: 57
Molecule: MSL1-V5 (pcDNA4-MSL1-V5) (from UniProt Q68DK7 1-614) (natural protein)

Kd (Nupr1 [5]): 800 nM
B1: MSL1 (protein)
chain: MTMRSAVFKAAAAPAGGNPEQRLDYERAAALGGPEDEPGAAEAHFLPRHRKLKEPGPPLASSQGGSPAPSPAGCGGKGRGLLLPAGAAPGQQEESWGGSVPLPCPPPATKQAGIGGEPAAAGAGCSPRPKYQAVLPIQTGSLVAAAKEPTPWAGDKGGAASPAATASDPAGPPPLPLPGPPPLAPTATAGTLAASEGRWKSMRKSPLGGGGGSGASSQAACLKQILLLQLDLIEQQQQQLQAKEKEIEELKSERDTLLARIERMERRMQLVKKDNEKERHKLFQGYETEEREETELSEKIKLECQPELSETSQTLPPKPFSCGRSGKGHKRKSPFGSTERKTPVKKLAPEFSKVKTKTPKHSPIKEEPCGSLSETVCKRELRSQETPEKPRSSVDTPPRLSTPQKGPSTHPKEKAFSSEIEDLPYLSTTEMYLCRWHQPPPSPLPLRESSPKKEETVARCLMPSSVAGETSVLAVPSWRDHSVEPLRDPNPSDLLENLDDSVFSKRHAKLELDEKRRKRWDIQRIREQRILQRLQLRMYKKKGIQESEPEVTSFFPEPDDVESLMITPFLPVVAFGRPLPKLTPQNFELPWLDERSRCRLEIQKKQTPHRTCRK
modifications: Nupr1 preformed complex with etoposide-damaged DNA
